Assay results as given in patent US20100204147A1, “Methods For Delivering Thymosin Beta 4, Analogues, Isoforms and Other Derivatives” (REGENERX BIOPHARMACEUTICALS, INC., priority 2003, published 2010).

Target: T1, fibrinogen (Homo sapiens, UniProt P02671)
T1 construct: purchased Enzyme Research Laboratories (South Bend, Ind.)
T1 sequence (P02671 20-644 isoform P02671-2 limits assumed): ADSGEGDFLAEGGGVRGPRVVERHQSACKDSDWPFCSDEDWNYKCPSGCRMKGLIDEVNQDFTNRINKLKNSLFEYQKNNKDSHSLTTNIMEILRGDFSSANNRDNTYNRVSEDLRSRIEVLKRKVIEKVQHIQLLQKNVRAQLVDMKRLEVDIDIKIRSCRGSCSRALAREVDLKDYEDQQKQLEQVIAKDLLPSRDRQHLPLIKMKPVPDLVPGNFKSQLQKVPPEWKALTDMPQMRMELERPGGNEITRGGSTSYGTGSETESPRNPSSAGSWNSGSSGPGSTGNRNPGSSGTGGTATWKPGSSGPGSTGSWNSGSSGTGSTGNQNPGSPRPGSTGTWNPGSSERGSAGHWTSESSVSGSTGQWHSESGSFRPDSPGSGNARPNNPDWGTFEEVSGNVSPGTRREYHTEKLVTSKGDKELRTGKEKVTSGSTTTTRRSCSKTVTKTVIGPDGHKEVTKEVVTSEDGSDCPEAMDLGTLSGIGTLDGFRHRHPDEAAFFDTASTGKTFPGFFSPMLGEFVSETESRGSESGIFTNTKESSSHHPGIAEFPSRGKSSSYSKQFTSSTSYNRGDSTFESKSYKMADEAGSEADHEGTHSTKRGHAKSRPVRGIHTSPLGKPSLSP
T1 sequence (P02675 31-491 partner): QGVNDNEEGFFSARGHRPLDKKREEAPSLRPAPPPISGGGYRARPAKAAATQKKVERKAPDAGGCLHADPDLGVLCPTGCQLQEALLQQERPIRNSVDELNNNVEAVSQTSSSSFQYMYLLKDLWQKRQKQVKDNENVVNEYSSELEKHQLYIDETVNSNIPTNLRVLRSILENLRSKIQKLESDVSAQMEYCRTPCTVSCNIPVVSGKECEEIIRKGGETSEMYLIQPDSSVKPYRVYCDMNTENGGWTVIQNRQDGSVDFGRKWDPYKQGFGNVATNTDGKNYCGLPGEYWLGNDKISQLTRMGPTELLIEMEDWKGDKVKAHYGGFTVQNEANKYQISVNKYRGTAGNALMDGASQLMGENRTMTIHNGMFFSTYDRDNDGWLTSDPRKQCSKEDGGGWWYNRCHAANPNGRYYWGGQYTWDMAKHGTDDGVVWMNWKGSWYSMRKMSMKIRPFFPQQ
T1 sequence (P02679 27-437 isoform P02679-2 partner limits assumed): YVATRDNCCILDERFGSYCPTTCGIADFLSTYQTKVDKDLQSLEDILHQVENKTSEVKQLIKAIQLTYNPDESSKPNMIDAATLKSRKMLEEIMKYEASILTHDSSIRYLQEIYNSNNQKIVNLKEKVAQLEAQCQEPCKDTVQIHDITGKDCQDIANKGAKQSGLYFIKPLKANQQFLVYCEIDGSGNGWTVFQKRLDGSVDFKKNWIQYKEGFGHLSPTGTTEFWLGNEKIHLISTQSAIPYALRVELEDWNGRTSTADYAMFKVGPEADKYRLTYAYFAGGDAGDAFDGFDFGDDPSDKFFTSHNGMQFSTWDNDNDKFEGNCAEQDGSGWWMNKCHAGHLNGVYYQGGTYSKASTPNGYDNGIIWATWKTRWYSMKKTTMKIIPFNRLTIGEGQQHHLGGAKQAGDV
Assay: Factor XIIIa-mediated incorporation of FITC-labeled thymosin β4 into fibrinogen (spectrophotometric)
Assay type: biochemical
Experimental: Reactions of incorporation of FITC-labeled and unlabeled thymosin β4 into fibrinogen and fibrin were performed in Eppendorf tubes containing a mixture of fibrinogen at 3 mg/mL (9 μM) and thymosin β4 or FITC-labeled thymosin β4 at […] (30 μM) in 100 μL TBS with 2.5 mM CaCl2. The reactions were initiated by addition of FXIIIa(Ca) or FXIIIa(Thr) to final concentration of 30 μg/mL. The final concentration of thrombin in the FXIIIa(Thr)-containing mixtures was made at 2.5 NIH u/mL, sufficient to rapidly form fibrin clot which was observed visually. The reactions with FITC-labeled thymosin β4 lasted for 4 hours at 37° C. in the dark and were stopped by heat inactiviation of the enzymes in boiling water for 5 min during fibrinogen and fibrin denatured and precipitated. The pellets were centrifuged and washed 3 times in TBS and then solubilized. The amounts of fibrin(ogen) and FITC-labeled thymosin β4 in the solubilized pellet were determined spectrophotomertrically using absorption molar coefficients E280,1%=15.0 and ε495=72,000 M^−1cm^−1, respectively. To prepare samples with unlabeled thymosin β4 for analysis by SDS-PAGE and Western blot the reaction mixtures at the indicated time were heat-inactivated as above and solubilized by addition of sample buffer (Invitrogen) containing SDS and reducing agent.

degree of incorporation into fibrinogen (fibrinogen 9 μM, thymosin β4 30 μM, factor XIIIa, 4 hours, 37° C.): 0.2 moles per mole | molar incorporation ratio of thymosin β4 to fibrinogen (physiological concentrations of fibrin(ogen) and factor XIII): 0.2
Substance: thymosin β4
